Test results as given in US5316947A, “Synthetic isohirudins with improved stability” (Hoechst Aktiengesellschaft, priority 1991, dated 1994).

What was measured:
[1] = 20-hour stability of [Ala1,Thr2] desulfatohirudin analogs at pH 7 and 60° C. (RP HPLC and anion exchange chromatography); assay type: physicochemical; conditions: stress conditions: 20 h, 0.5 mg/ml in 20 mM NaP, 300 mM NaCl
Procedure: The compound to be tested was dissolved in 0.5 mg/ml in 20 mM NaP, pH 7, 300 mM NaCl and incubated at 60° C. for 20 h. Samples were taken at times t=0 and t=20 h and analyzed by RP HPLC (Nucleosil®) and anionic exchange chromatography (Mono Q®). The content of newly formed byproducts was calculated.

[2] = molecular target: thrombin (Homo sapiens, UniProt P00734); assay: Comparative Ki value determination on optimized isohirudins (method of Stone and Hofsteenge, chromogenic substrate D-HHT-Gly-Arg-pNA); assay type: biochemical; conditions: 25° C., pH 8.3, 0.1 M tris, 0.2 M NaCl, 0.1% Triton X-100; Ki = koff/kon; read-out: Ki(app.)
Procedure: Ki values were determined by the method of Stone and Hofsteenge (Biochemistry 25, pages 4622-4628, 1986): 0.2 ml of a 1.25 mM solution of D-HHT-Gly-Arg-pNA was equilibrated at 25° C. with 1.7 ml of 0.1 M tris, 0.2 M NaCl and 0.1% (v/v) Triton X-100 pH 8.3 and 0.1 ml of the isohirudin to be tested in 145 mM NaCl. Binding was started by adding 0.05 ml of thrombin solution. The absorption at 405 nm was recorded for a period of 10-20 min.
The reaction follows the equation:
[P]=vs *t+(vo -v5)(1-e^-k*t)/k+d,
[P]=product concentration (nitroaniline) […]
vs =reaction rate in the equilibrium state
The rate constant k was determined by non-linear regression. Extrapolation of k at various inhibitor concentrations to [1]=0 according to […]
yields the rate constants kon and koff and thus Ki =koff /kon.

[3] = Time course of byproduct formation of desulfatohirudin analogs at pH 6.5 and pH 4, 60° C. (FIG. 4 and FIG. 3); assay type: physicochemical; conditions: 1 mg/ml in water, pH 4 (FIG. 3) and pH 6.5 (FIG. 4), up to 96 h
Procedure: The purified isohirudins, as lyophilisate, were dissolved at 1 mg/ml in water and adjusted to pH 6.5 with 1 M […]. After sterilization by filtration, […]. Samples were taken at times t=0, 5, 24, 48, 72 and 96 h and analyzed by RP HPLC (Nucleosil®) and ion exchange chromatography (Mono®) for the content of byproducts therein. The purity at time t=x is shown relative to the purity at t=0, with in each case the less favorable value from the two analysis systems being used as bases (FIG. 4).
The purified isohirudins, as lyophilisate, were dissolved at 1 mg/ml in water and adjusted to pH 4 with 1 M acetic acid. Incubation and analyses were carried out as in Example 10 (FIG. 3).

| Ki [2] [nM] | Molecule | % newly formed byproducts [1] [%] | Stability (byproduct formation over time) [3] |
| --- | --- | --- | --- |
| 0.37 | [Ala^1,Thr^2,Glu^33,Glu^53 ] desulfatohirudin | – | simple exchange of the aspartic acid does not have the optimal effect |
| 0.61 | [Ile^1,Thr^2 ] desulfatohirudin [reference compound] | – | – |
| 0.14 | [Leu^1,Thr^2 ] desulfatohirudin [reference compound] | – | – |
| 0.38 | [Ala^1,Thr^2,Glu^53 ] desulfatohirudin (protein, ends and bridges not checked) ATYTDCTESGQNLCLCEGSNVCGQGNKCILGSDGEKNQCVTGEGTPKPQSHNEGDFEEIPEEYLQ | – | – |
| 0.3 | [Ala^1,Thr^2,Glu^33,Gln^52,Glu^53,Glu^55 ]-desulfatohirudin (protein, ends and bridges not checked) ATYTDCTESGQNLCLCEGSNVCGQGNKCILGSEGEKNQCVTGEGTPKPQSHQEGEFEEIPEEYLQ | 3.2 | superior stability |

The next lines start with the molecule.

| Molecule | Ki [2] [nM] | % newly formed byproducts [1] [%] | Stability (byproduct formation over time) [3] |
| --- | --- | --- | --- |
| [Ala^1,Thr^2 ] desulfatohirudin [reference compound] | 0.2 | 23.0 | – |
| [Ala^1 Thr^2,Glu^33,Ala^54 ] desulfatohirudin (protein, ends and bridges not checked) ATYTDCTESGQNLCLCEGSNVCGQGNKCILGSEGEKNQCVTGEGTPKPQSHNDADFEEIPEEYLQ | 0.35 | – | – |
| [Ala^1,Thr^2,Gln^52,Glu^53,Ala^54 ] desulfatohirudin (protein, ends and bridges not checked) ATYTDCTESGQNLCLCEGSNVCGQGNKCILGSDGEKNQCVTGEGTPKPQSHQEADFEEIPEEYLQ | 0.22 | – | – |
| [Ala^1,Thr^2,Glu^33,Gln^52,Glu^53,Ala^54 ]-desulfatohirudin (protein, ends and bridges not checked) ATYTDCTESGQNLCLCEGSNVCGQGNKCILGSEGEKNQCVTGEGTPKPQSHQEADFEEIPEEYLQ | 0.31 | – | superior stability |
| [Ala^1,Thr^2,Glu^33 ] desulfatohirudin (protein, ends and bridges not checked) ATYTDCTESGQNLCLCEGSNVCGQGNKCILGSEGEKNQCVTGEGTPKPQSHNDGDFEEIPEEYLQ | 0.16 | 15.2 | – |
| [Ala^1,Thr^2,Gln^52,Glu^53,Glu^55 ] desulfatohirudin (protein, ends and bridges not checked) ATYTDCTESGQNLCLCEGSNVCGQGNKCILGSDGEKNQCVTGEGTPKPQSHQEGEFEEIPEEYLQ | 0.19 | 14.6 | – |
| [Ala^1,Thr^2,Ala^54 ] desulfatohirudin (protein, ends and bridges not checked) ATYTDCTESGQNLCLCEGSNVCGQGNKCILGSDGEKNQCVTGEGTPKPQSHNDADFEEIPEEYLQ | 0.27 | – | – |
